For this experiment, the target named is T1, HLA-DR13 (DRB1*1301) (human).
T1 chain 1: not shown
T1 chain 2: not shown
Kind of experiment: competition ELISA, nonbiotinylated reference peptide against its biotinylated tracer. A general note: In an ELISA, binding on a coated surface is turned into a signal by an enzyme label.

Where no end group is shown, it is not given here.

By IC50 is commonly meant the concentration needed to halve the response being measured. A lower IC50 goes with higher potency. As to TERVRLVTRHIYNREE (not fully specified) [B1 21-36 (nonbiotinylated reference peptide)], the IC50 is 39 nM.

Source of the values: patent publication US20110159022A1, “Immunogenic Peptides Derived from the Midkine Protein, as an Anticancer Vaccine” (priority 2008, published 2011).
